According to the supplement of paper PMC9876800:

Tested on: peptide library, one residue held at a place counted from the S/T acceptor
Assay: relative phosphorylation of the sub-library (ratio to the mean residue at this position); higher = residue favoured
Procedure, shortened: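 Relative sub-library phosphorylation is the ratio of each sub-library's signal to the mean residue at that position. The signal came from phosphorimaging of spots on streptavidin membranes, quantified by densitometry, after purified recombinant kinases reacted with biotinylated degenerate peptide sub-libraries in 384-well plates. Reactions held 50 μM peptide and 50 μM ATP spiked with γ-32P-ATP for 90 min under kinase-specific conditions.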

Sequence of LATS2, construct: aa553-end, human (Q9NRM7 553-1088, looked up): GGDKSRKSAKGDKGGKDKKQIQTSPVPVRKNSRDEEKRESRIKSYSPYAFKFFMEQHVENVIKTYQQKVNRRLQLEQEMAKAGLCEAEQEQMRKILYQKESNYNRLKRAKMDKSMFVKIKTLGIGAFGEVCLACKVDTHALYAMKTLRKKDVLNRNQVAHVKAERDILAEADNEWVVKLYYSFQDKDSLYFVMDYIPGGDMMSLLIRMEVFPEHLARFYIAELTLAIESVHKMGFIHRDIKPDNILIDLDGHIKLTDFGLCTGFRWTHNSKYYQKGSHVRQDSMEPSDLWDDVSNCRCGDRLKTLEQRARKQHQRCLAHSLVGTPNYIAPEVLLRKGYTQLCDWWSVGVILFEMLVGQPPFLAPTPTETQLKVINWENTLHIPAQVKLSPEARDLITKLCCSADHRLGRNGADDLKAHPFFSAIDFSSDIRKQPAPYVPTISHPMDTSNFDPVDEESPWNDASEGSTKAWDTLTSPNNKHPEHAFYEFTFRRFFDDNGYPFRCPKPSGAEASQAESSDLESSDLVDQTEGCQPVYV

LATS2, construct: aa553-end, human (from UniProt Q9NRM7)
relative phosphorylation
Details	at +1	at +2	at +3	at +4	at -1	at -2	at -3	at -4	at -5
A fixed	0.577	1.11	0.859	0.703	0.693	0.789	0.766	1.15	0.615
D fixed	0.89	2.94	1.47	1.4	0.702	0.901	0.465	0.649	0.475
E fixed	0.953	0.932	1.36	1.49	0.516	1.27	0.352	0.739	0.308
F fixed	1.29	0.699	0.846	0.865	0.483	0.764	0.415	0.981	0.672
G fixed	0.876	1.53	1.54	1.27	0.994	1.13	0.769	1.15	0.706
H fixed	0.995	1.27	1.2	1.31	1.07	1.43	1.66	1.36	6.2
I fixed	1.16	0.853	0.778	0.671	0.331	0.321	0.242	0.49	0.308
K fixed	0.821	0.357	0.868	0.756	2.74	1.03	2.4	1.27	1.12
L fixed	1.12	0.862	0.825	0.661	0.699	0.393	0.297	0.587	0.458
M fixed	1.49	0.841	0.875	1.07	0.71	0.91	0.36	0.92	0.439
N fixed	1.42	1.01	1.03	1.28	1.12	1.64	0.784	0.925	0.607
P fixed	0.328	0.794	1.04	1.33	2.39	0.766	1.48	1.34	0.682
Q fixed	1.11	0.789	1.04	1.05	1.19	2.35	0.897	1.08	0.719
R fixed	0.717	0.357	0.617	0.741	1.42	1.26	4.37	1.78	1.43
V fixed	0.84	0.829	0.747	0.524	0.425	0.367	0.325	0.545	0.445
W fixed	1.23	0.807	1.03	0.887	0.746	0.899	0.691	1.08	1.04
Y fixed	1.18	1.02	0.874	0.996	0.779	0.782	0.734	0.966	0.776
pThr fixed	1.08	0.655	0.925	1.55	0.287	0.456	0.441	0.552	0.349
pTyr fixed	1.09	0.807	1.04	1.12	0.347	0.382	0.418	0.548	0.442
